Measurements as given in patent US6972178B1, “Drug screening using a proline-rich nuclear receptor co-regulatory protein/nuclear receptor co-expression system” (City of Hope, priority 1999, dated 2005).
Entries after “also recorded” stand apart in the source; their conditions may differ. Ends that are not written are not given here.

Legend:
[1] = biological target: T1, SF1 (Bos taurus, UniProt Q04752); test: Yeast two-hybrid assay (HIS3 / β-galactosidase reporter); format: cell-based, bovine; design: The coding region for the wild type bovine SF1 was first subcloned into a yeast expression vector, pGBT9; expressed in transfected cells; host or cells: yeast (Y187, or Y187 x CG1945 diploids); details: no ligand
Experimental: (§1) The protein-protein interactions between the full-length PNRC or PNRC fragments and SF1, ERRα1, and several other nuclear receptors were analyzed by yeast two-hybrid assays. The yeast two-hybrid assay was used to test if PNRC also interacts with other members of the nuclear receptor superfamily. pGBT9-ERRα-1 yeast expression plasmid was prepared by inserting the PCR-amplified ERRA-1 coding region into pGBT9 through an EcoRI site. To construct the plasmid pGBT9-ER274-595, the coding sequence from amino acids 274 to 595 (LBD) of ERα was amplified by PCR with the sense primer 5′-[…]-3′ (SEQ ID NO:1) and antisense primer 5′-[…]-3′ (SEQ ID NO:2) and cloned into the EcoRI/,SalI site of the pGBT9 yeast expression plasmid. pSG5-GRIP1 and several yeast expression plasmids coding for fusion proteins of Gal4-DBD and HBDs of AR, GR, PR, TR, RAR, and RXR in pGBT9 vector were kindly provided by Dr. Michael R. Stallcup (University of Southern California, Los Angeles, Calif.) (Voegel et al., 1996; Hong et al., 1996; Ding et al., 1998). The yeast mating approach was used in yeast two-hybrid assays to study protein-protein interactions as described in Clontech's protocol. Briefly, pGBT9 (DNA-BD vector only), pGBT9/target plasnmids for SF1, ERRα1, and other HBDs of nuclear receptors, and DNA-BD/control plasmids (as negative control) were introduced into the reporter strain Y187, and the AD vector alone or wild type PNRC and its deleted fragments-containing pACT2 derivatives were used to transform yeast strain CG1945. The yeast mating was performed by picking one colony from each type and growing both colonies in liquid YPD medium with or without a proper ligand at the following concentrations: 100 nM of estradiol for ER; 10 μM of deoxycorticosterone for GR; 100 nM of dihydrotestosterone for AR; 500 nM of progesterone for PR; 10 μM of T3 for TR; 10 μM of all-trans-retinoic acid for RAR; and 10 μM of 9-cis-retinoic acid for RXR. The same amount of an aliquot of the mating culture was spread on both SD/-Leu/-Trp plates to select diploid strains bearing both plasmids and SD/-Leu/-Trp/-His/+3-AT plates to score the growth of the diploid cells that express the two interacting target proteins. The His3 positive colonies were further analyzed for β-galactosidase activity by liquid β-galactosidase activity measurement as essentially described in the protocol.
(§2) Yeast strains Y187 expressing the Gal4DB fusion to the nuclear receptors and CG1945expressing Gal4AD alone or Gal4AD-PNRC fusion protein were mated by co-culturing, and selected for the presence of both two-hybrid plasmids. The expression of interacting hybrid proteins in yeast diploids was analyzed to determine if there was induction of HIS3 expression as shown in FIG. 1A and LacZ expression as shown in FIGS. 1B and 1C. […] As shown in FIGS. 1A-C, PNRC also interacted specifically with all seven nuclear receptor HBDs, including ER, AR, GR, TR, PR, RAR and RXR, and these interactions were completely ligand-dependent. […] However, no interactions occurred either between PNRC and an irrelevant protein such as human lamin C protein or between nuclear receptors and Gal4activation domain alone.

[2] = tested on: PR HBD; test: as above; format: cell-based; details: 500 nM of progesterone
Experimental: as §1, §2

[3] = tested on: RAR HBD; test: as above; format: cell-based; details: 10 μM of all-trans-retinoic acid
Experimental: as §1, §2

[4] = tested on: RXR HBD; test: as above; format: cell-based; details: 10 μM of 9-cis-retinoic acid
Experimental: as §1, §2

[5] = tested on: TR HBD; test: as above; format: cell-based; details: 10 μM of T3
Experimental: as §1, §2

[6] = biological target: T1, SF1; test: Mammalian two-hybrid assay in SK-BR-3 cells (CAT reporter); format: cell-based, bovine; design: expressed in transfected cells; host or cells: SK-BR-3
Experimental: The Mammalian MatchMaker two-hybrid assay system (Clontech) was used to confirm the interaction between PNRC and SF1 that was identified in the yeast assays. Because the assays are performed in mammalian cells, proteins are more likely to be in their native conformations, and the results are therefore more likely to represent biologically significant interactions. SK-BR-3 breast cancer cells were cotransfected with three expression plasmids, including pM-SF1 for Gal4 DNA-DB/SF1 fusion protein, pVP16-PNRC for VP16AD-PNRC fusion protein, and a third vector, pG5CAT, to provide the Gal4 DNA-binding site, a promoter, and the CAT reporter gene.
A set of plasmids, named pM-SF1, pVP16-PNRC, pVP16-PNRC270-327, and pVP16-PNRC278-300, for mammalian two-hybrid assays were prepared as follows: SF1 cDNA fragment was excised from pGBT9-SF1 and inserted in frame into Gal4 DNA-binding domain vector pM (Clontech) through an EcoRI site. PCR was used to generate PNRC full length coding region as well as the above mentioned deleted fragments with BclI at both ends. The PCR products were digested with BclI and inserted in proper reading frame into a pVP16 activation domain vector (Clontech) at a BamHI site. Mammalian two-hybrid assays in SK-BR-3 cells were performed according to the procedures described in the Clontech protocol (PT3002-1).

[7] = biological target: T1, SF1; test: GST pull-down binding assay; design: The coding region for the wild type bovine SF1 was first subcloned into a yeast expression vector, pGBT9; expressed in transfected cells; host or cells: yeast (Y187, or Y187 x CG1945 diploids); species or system bovine; details: GST fusion on glutathione Sepharose beads, 2 hour at 4° C.
Experimental: To further confirm the interaction between PNRC and SF1 which was detected in both the yeast and the mammalian two-hybrid assays, a GST pull-down binding assay was performed to study the direct binding between PNRC and SF1 in vitro. The PNRC cDNA fragments were generated by PCR and inserted into E. coli expression vector pGEX2TK (Pharnacia) through a BamHI site to express GST-PNRC wild type and deletion mutants fusion proteins. Wild type bovine SF1 cDNA in pSG5 vector was translated in vitro in the presence of [^35S]methionine using the TNT Coupled Reticulocyte Lysate System (Promega, Madison, Wis.). GST and deleted PNRC fusion proteins, GST-PNRC270-327 and GST-PNRC278-300, were prepared using the affinity matrix Glutathione Sepharose 4B (Pharmacia) according to the supplier's instructions. The washed beads containing about 10 μg GST fusion protein were incubated for 2 hour at 4° C. with 4 μl in vitro translated, [^35S]methionine-labeled SF1 in a total volume of 150 μl incubation buffer (50 mM Kpi, pH 7.4, 100 mM NaCl, 1 mM MgCl2, 10% glycerol, 0.1% Tween 20, 1.5% BSA) (Treuter et al., 1998). […]
PNRC fragments, including PNRC270-327 and PNRC278-300 were expressed as fusion proteins with glutathione S-transferase (GST) in E. coli BL21, purified with glutathione Sepharose 4B beads, and tested for their ability to bind in vitro translated [^35S]methionine-labeled SF1 in pull-down assays.

[8] = biological target: T2, Gal4AD-PNRC fusion protein (full-length proline-rich nuclear receptor co-regulatory protein) (human, UniProt Q12796 1-327); test: yeast two-hybrid (HIS3 and LacZ reporters)
T2 construct: Yeast two-hybrid prey; also called wild type PNRC in pACT2; B4-2

[9] = biological target: T3, Gal4 DNA-DB/SF1 fusion protein (pM-SF1) (bovine, UniProt P04386 1-147; Q04752 1-461); test: mammalian two-hybrid, CAT reporter, SK-BR-3 cells
T3 construct: Mammalian two-hybrid construct, expressed in SK-BR-3 cells

[10] = biological target: T4, Gal4DBD-SF1 fusion protein (bovine steroidogenic factor 1, pGBT9-SF1) (bovine, UniProt P04386 1-147; Q04752 1-461); test: yeast two-hybrid (HIS3 and LacZ reporters)
T4 construct: Yeast two-hybrid bait; whole wild type coding region; also called DBDGal4-SF1

[11] = biological target: Gal4DBD-ERRα1 fusion protein (estrogen related receptor α-1, pGBT9-ERRα-1) (UniProt P04386 1-147; P11474 1-423); test: yeast two-hybrid (HIS3 and LacZ reporters)
[12] = biological target: T5, Gal4DBD fusion of ERα ligand-binding domain, amino acids 274 to 595 (pGBT9-ER274-595) (UniProt P04386 1-147; P03372 274-595); test: yeast two-hybrid (HIS3 and LacZ reporters)
T5 construct: Tested with 100 nM estradiol; also called ER HBD

T1 sequence (Q04752 whole entry, the tested form may be a part): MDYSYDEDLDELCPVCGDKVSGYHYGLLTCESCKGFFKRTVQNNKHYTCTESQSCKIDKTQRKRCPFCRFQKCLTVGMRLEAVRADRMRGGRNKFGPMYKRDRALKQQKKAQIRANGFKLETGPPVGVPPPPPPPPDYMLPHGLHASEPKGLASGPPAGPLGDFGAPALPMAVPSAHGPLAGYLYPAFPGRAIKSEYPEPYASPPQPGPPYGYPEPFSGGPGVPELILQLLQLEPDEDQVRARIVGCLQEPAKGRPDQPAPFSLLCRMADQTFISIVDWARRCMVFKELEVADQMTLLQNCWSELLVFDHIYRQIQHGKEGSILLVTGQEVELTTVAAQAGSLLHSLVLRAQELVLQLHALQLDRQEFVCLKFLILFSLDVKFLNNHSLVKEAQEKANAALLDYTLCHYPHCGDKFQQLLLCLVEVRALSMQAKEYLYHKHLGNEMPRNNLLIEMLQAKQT
Chain of PR HBD (P06401 679-933 limits assumed): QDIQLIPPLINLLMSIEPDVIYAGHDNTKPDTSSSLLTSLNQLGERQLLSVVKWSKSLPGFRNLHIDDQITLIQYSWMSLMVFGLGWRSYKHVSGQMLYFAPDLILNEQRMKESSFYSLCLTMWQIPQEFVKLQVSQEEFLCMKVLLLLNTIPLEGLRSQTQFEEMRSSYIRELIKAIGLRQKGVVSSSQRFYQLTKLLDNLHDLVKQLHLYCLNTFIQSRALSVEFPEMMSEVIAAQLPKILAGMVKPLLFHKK
T2 sequence (Q12796 whole entry, the tested form may be a part): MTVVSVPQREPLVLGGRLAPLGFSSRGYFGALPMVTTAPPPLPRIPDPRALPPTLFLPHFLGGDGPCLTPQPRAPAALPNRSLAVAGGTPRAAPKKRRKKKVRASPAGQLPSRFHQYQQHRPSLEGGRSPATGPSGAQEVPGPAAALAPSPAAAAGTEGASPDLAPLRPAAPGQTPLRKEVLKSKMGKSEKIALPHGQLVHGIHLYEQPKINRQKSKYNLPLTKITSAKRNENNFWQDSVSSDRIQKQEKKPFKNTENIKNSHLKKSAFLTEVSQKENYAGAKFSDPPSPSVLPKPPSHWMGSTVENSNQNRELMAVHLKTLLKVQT

NR box: NR box-like sequence LKTLL (aa 319-323; SEQ ID NO:4) of PNRC as fusion protein with Gal4 AD (not fully specified; UniProt Q12796 319-323, looked up, fragment)
interaction with SF1 [1]: No interaction was observed

PNRC278-300 (mutant): PNRC278-300 carrying double mutations P287A and P290A (S-D-A-P-S-A-S, SEQ ID NO:6) (SDAPSAS; MUTAGEN (3) This residue has been changed from a proline.; listed as Homo sapiens)
interaction with PR [2]: almost completely abolished the interactions | interaction with RAR [3]: almost completely abolished the interactions | interaction with RXR [4]: almost completely abolished the interactions | interaction with TR [5]: almost completely abolished the interactions | interaction with SF1 [1]: almost completely abolished the interactions

PNRC278-300: 23-amino acid PNRC region aa 278-300 (SEQ ID NO:9), expressed as Gal4AD, VP16 or GST fusion protein (NYAGAKFSDPPSPSVLPKPPSHW; listed as Homo sapiens)
interaction with SF1 in mammalian two-hybrid assay [6]: retain most of the interaction of full length PNRC to SF1 | interaction with SF1 [1]: able to interact with SF1 | binding of in vitro translated 35S-labeled SF1 [7]: found to bind SF1

PNRC301-327: PNRC fragment aa 301-327 containing the NR box, Gal4AD fusion protein
interaction with SF1 [1]: could not interact with SF1

PNRC/270-317: PNRC fragment aa 270-317 lacking the NR box, Gal4 AD fusion protein
interaction with SF1 [1]: about the same

PNRC/270-327: C-terminal PNRC fragment aa 270-327, expressed as Gal4AD, VP16 or GST fusion protein
interaction with SF1 [1]: about the same; also recorded: stronger than the interaction between PNRC/278-300 and SF1 | binding of in vitro translated 35S-labeled SF1 [7]: found to bind SF1

B1: human lamin C protein (irrelevant protein, DNA-BD/control plasmid) (other, UniProt P04386 1-147, looked up)
chain: MKLLSSIEQACDICRLKKLKCSKEKPKCAKCLKNNWECRYSPKTKRSPLTRAHLTEVESRLERLEQLFLLIFPREDLDMILKMDSLQDIKALLTGLFVQDNVNKDAVTDRLASVETDMPLTLRQHRISATSSSEESSNKGQRQLTVSSEEVVSREVSGIKAAYEAELGDARKTLDSVAKERARLQLELSKVREEFKELKARNTKKEGDLIAAQARLKDLEALLNSKEAALSTALSEKRTLEGELHDLRGQVAKLEAALGEAKKQLQDEMLRRVDAENRLQTMKEELDFQKNIYSEELRETKRRHETRLVEID
notes: that lamin C is the DNA-BD control fusion is inferred from these two statements
binding result [8]: no binding

B2: VP16 activation domain alone (other)
chain: STAPPTDVSLGDELHLDGEDVAMAHADALDDFDLDMLGDGDSPGP
notes: Control of the mammalian two-hybrid assay; also called VP16 AD
binding result [9]: no binding

B3: Gal4 activation domain alone (other, UniProt P04386 768-881, looked up)
chain: ANFNQSGNIADSSLSFTFTNSSNGPNLITTQTNSQALSQPIASSNVHDNFMNNEITASKIDDGNNSKPLSPGWTDQTAYNAFGITTGMFNTTTMDDVYNYLFDDEDTPPNPKKE
notes: Control of the yeast two-hybrid assays; also called Gal4AD; AD vector alone
binding result [10]: no binding | binding result [11]: no binding | binding result [12]: no binding
